Molecular target: T1, Trm7-A26P-PT (S. cerevisiae, UniProt P38238 1-310, A26P)
T1 sequence (looked up): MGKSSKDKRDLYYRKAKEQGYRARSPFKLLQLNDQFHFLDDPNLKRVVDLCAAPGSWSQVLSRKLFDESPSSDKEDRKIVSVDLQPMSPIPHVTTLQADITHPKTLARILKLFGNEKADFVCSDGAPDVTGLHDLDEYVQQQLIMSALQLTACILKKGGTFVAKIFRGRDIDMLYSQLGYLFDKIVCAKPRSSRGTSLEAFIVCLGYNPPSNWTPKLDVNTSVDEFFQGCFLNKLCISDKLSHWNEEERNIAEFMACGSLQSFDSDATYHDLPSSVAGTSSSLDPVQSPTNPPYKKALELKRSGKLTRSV
Assay: pull-down

B1: Trm734-9myc (natural protein, S. cerevisiae, UniProt Q08924 1-1013, looked up)
chain: MKDLSHYGPALCVKFYNDYVLAGYGPFIHVYDYHSATLINKCRLFHYNKVHGLSLSSEGKILAYGARSVTIVELEDVLKKESLVDFERINSDWITGATFSFDNLQIYLLTCYNKVLICDLNCEVLFRKSLGGERSILYSGIIKVFGPDKVYVNAGTVMGGVIIWDLFSETKIHNLLGHEGSIFYVNLSNNGRYVASCSDDRSIRLWDLETGKQLSVGWSHTARIWNLMFFDNDSKLISVSEDCTCRVWNIIESRENVAELSISNVYEVHLIKSIWGVDVKDDEMIAVTSGNDGRLKLIDLLQLKRHGDEETSFSLDDIAKQCGDIFEKNESIKGFQWFSFGVIAITSLGKILKYSDVTKQWKLLLTNEKFNSYPITNGIQTQNIAVFSNNKSDILLIKFSKDSADIIETEEFHLDELSKTNNCLVTEYDDDSFLLTLQSPNPREKFVCLEISLQNLKIKSKHCFNKPENFSSSCLTSFRNHILVGSRFSTLVIYNLLDESEEPFIIRRLSPGDTTTSIEFVEDKDNSAVFSVTNRDGYYVFIELTKNSLEEGPYRLSYKVLHSNKMMKGFLEGAFFNSKGEYITYGFKSSLFYLYNETNCYELASEVCGGSHRLWNLAKITDGHVLMYIKASRFHLRKIYNSIVPETLENGVHGREIRDISICPVSNTNTNDNFKDGHIFCTASEDTTIKLGYFNNRTGKVQNFWTQRKHVSGLQRCQFINHKLMISSSAREELFLWELNDKYNKRPYMTIRQALPVSTNNSDLRIMDFDVKFISQSGDFLLVTVYSDSTIKIWHYRENQNKFDLIMQGRYKTCCLFNVVFIALKEELLVVISPTDGHLVVYNITEYVPFSVDPISGDLVDHKLDATISNLPAPVAQLPVHQSGVKSLDYVANATRTSATILTGGDDNGLGLSNLKLDDSNKVTLKTSDFIAAAASSTITSGMLINGGKEVITTSVDQVIRAWEITAGKLSLVDKKRTTVADTGSLEIISNDEDADSEKTLLIGGVGLSIWKK
fold of Trm734-9myc pulled down against Trm7-MORF from a CEN plasmid: ~10 fold
